# In IntAct's records for PubMed 17030804:
# B1: Rab11 family-interacting protein 3 (Homo sapiens), O75154-1 (parent)
# chain: MASAPPASPPGSEPPGPDPEPGGPDGPGAAQLAPGPAELRLGAPVGGPDPQSPGLDEPAPGAAADGGARWSAGPAPGLEGGPRDPGPSAPPPRSGPRGQLASPDAPGPGPRSEAPLPELDPLFSWTEEPEECGPASCPESAPFRLQGSSSSHRARGEVDVFSPFPAPTAGELALEQGPGSPPQPSDLSQTHPLPSEPVGSQEDGPRLRAVFDALDGDGDGFVRIEDFIQFATVYGAEQVKDLTKYLDPSGLGVISFEDFYQGITAIRNGDPDGQCYGGVASAQDEEPLACPDEFDDFVTYEANEVTDSAYMGSESTYSECETFTDEDTSTLVHPELQPEGDADSAGGSAVPSECLDAMEEPDHGALLLLPGRPHPHGQSVITVIGGEEHFEDYGEGSEAELSPETLCNGQLGCSDPAFLTPSPTKRLSSKKVARYLHQSGALTMEALEDPSPELMEGPEEDIADKVVFLERRVLELEKDTAATGEQHSRLRQENLQLVHRANALEEQLKEQELRACEMVLEETRRQKELLCKMEREKSIEIENLQTRLQQLDEENSELRSCTPCLKANIERLEEEKQKLLDEIESLTLRLSEEQENKRRMGDRLSHERHQFQRDKEATQELIEDLRKQLEHLQLLKLEAEQRRGRSSSMGLQEYHSRARESELEQEVRRLKQDNRNLKEQNEELNGQIITLSIQGAKSLFSTAFSESLAAEISSVSRDELMEAIQKQEEINFRLQDYIDRIIVAIMETNPSILEVK
# Variants of: B1
# Settings: with rb11a_human RAB11A
row,Variant,effect of a mutation on the interaction
1,Y737S,disrupting interaction strength
2,D739A,disrupting interaction strength

# Now from value to variant:
row,effect of a mutation on the interaction,Variant
1,disrupting interaction strength,M746S
2,decreasing interaction strength,E747A
